Test results: article doi:10.1101/702415 (bioRxiv, 2019)

Target: T1, Ups1 (S. cerevisiae, UniProt Q05776 1-175)
T1 sequence: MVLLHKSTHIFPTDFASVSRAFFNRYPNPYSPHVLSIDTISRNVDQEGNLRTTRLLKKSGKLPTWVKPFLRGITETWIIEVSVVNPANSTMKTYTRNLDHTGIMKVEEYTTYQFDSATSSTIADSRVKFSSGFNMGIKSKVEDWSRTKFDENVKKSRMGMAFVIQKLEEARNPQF
Experiment: crystal structure

B1: Mdm35 (natural protein)
chain: MGNIMSASFAPECTDLKTKYDSCFNEWYSEKFLKGKSVENECSKQWYAYTTCVNAALVKQGIKPALDEAREEAPFENGGKLKEVDK
binding result: binds
